Consider one molecule from publication PMC2034099, “Preparation and preclinical evaluation of humanised A33 immunoconjugates for radioimmunotherapy” (British Journal of Cancer, 1995).

This experiment concerns the target T1, A33 antigen (Homo sapiens, endogenous on SW1222 and …, UniProt Q99795).
T1 construct: A33 antigen on human colorectal tumour cell lines; also called the antigen recognised by A33; source: endogenous, on SW1222 and Colo205 human colorectal tumour cells
Kind of experiment: flow cytometry on cells; Scatchard analysis: FITC-labelled antibodies titrated on 2.8 x 10^5 SW1222 cells, 2 h on ice, 350 ul PBS with 5% FCS and 0.1% sodium azide; fluorescence per cell calibrated with standard beads; linear regression. To be noted: one partner purified.

T1 sequence (Q99795 22-319): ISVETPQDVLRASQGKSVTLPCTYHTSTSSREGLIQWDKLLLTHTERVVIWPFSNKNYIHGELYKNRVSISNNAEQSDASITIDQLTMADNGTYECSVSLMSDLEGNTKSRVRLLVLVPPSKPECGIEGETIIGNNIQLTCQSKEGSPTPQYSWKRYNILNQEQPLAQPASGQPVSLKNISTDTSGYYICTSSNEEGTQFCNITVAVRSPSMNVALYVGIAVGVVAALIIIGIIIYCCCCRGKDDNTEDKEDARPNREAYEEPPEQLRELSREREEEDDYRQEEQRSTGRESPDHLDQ

B1: murine A33 IgG (antibody, V domains shown)
VH: EVKLVESGGGLVKPGGSLKLSCAASGFAFSTYDMSWVRQTPEKRLEWVATISSGGSYTYYLDSVKGRFTISRDSARNTLYLQMSSLRSEDTALYYCAPTTVVPFAYWGQGTLVTVSA
VL: DIVMTQSQKFMSTSVGDRVSITCKASQNVRTVVAWYQQKPGQSPKTLIYLASNRHTGVPDRFTGSGSGTDFTLTISNVQSEDLADYFCLQHWSYPLTFGSGTKLEVK
notes: the scan text reads CAPr at Kabat 92-96, restored to CAPTT from the hA33 line (94-102 are said to be murine); mouse gamma-2a heavy chain constant region ('the murine y-2a of the parent antibody'); mouse light chain constant region; IgG2a; also called mA33; mouse A33; copies: 2 + 2
Turning to B1, the Kd was found to be 1.28 nM.
